From patent US20220002426A1 (BIOINVENT INTERNATIONAL, published 2022) come the findings set out here.

For assay [1], the target named is T1, wild type, full length murine TNFR2 (on cells) (mouse, UniProt P25119 23-474).
T1 construct: whole, on cells; also called mTNFR2; mouse TNFR2
T1 sequence (looked up): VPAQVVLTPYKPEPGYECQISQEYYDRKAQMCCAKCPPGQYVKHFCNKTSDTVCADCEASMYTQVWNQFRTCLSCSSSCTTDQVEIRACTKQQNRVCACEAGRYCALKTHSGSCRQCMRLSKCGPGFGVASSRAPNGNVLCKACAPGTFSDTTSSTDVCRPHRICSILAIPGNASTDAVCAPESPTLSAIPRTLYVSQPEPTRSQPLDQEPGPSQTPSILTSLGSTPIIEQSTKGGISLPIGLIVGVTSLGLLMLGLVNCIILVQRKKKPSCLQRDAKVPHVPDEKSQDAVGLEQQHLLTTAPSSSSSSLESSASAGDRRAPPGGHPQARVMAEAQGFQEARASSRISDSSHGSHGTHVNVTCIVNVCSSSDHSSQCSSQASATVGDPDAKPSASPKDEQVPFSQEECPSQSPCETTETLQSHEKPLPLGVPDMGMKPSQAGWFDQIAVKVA
Kind of assay: FACS, activated mouse CD4+ T cells. A general note: In flow cytometry, cells or beads pass a laser one at a time.

Assay [2] deals with T2, mTNFRII (Sinobioologicals Cat No. 50128 M08H) (mouse, UniProt P25119 23-258, limits assumed).
T2 construct: bought
T2 sequence (looked up): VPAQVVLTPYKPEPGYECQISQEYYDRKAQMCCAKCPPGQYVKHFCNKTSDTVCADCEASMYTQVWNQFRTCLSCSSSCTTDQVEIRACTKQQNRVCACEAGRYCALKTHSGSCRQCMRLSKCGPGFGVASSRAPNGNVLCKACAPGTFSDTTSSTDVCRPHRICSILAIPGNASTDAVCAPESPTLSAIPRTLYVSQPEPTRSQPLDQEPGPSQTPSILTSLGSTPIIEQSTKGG
The experiment in a line: blocking ELISA, coated mTNFRII, competitor mTNF-α 2 nM. As to the method:
(§1) 96-well plates were coated with hTNFRII (Sinobioologicals Cat nr10414-H08H) or mTNFRII (Sinobioologicals Cat No. 50128 M08H) at 2.5 pmol/well in ELISA coating buffer (0.1 M sodium carbonate pH 9.5) and incubated overnight at 4° C. After washing in ELISA wash buffer (PBS with 0.05% Tween20), the plates were incubated under slow agitation for 1 h in room temperature with n-CoDeR® mAbs at 10 μg/ml (one-dose ELISA) or 33 nM and subsequent 1:2 dilutions (titration ELISA) in block buffer containing 0.45% fish gelatin. […] Thereafter, plates were washed. For the human ELISAs, Streptavidin-HRP (Jackson Cat No. 016-030-084) diluted 1:2000 in block buffer were added and again incubated for 1 h at room temperature followed by washes first in ELISA buffer and then in Tris buffer (pH 9.8). The substrate (Super Signal ELISA Pico from Thermo Scientific Cat. No. 37069) were thereafter diluted according to the manufacturers instruction, added to the wells and incubated in darkness for 10 min before reading in a Tecan Ultra. […] After washing, anti-Rabbit-HRP diluted 1:10 000 in block buffer was added and again incubated for 1 h at room temperature. Substrate adding and reading were performed as above.

The target in assay [3] is T3, recombinant mouse TNFR2-Fc protein (Sino Biological) (mouse, UniProt P25119 23-258, limits assumed).
T3 construct: bought; also called mTNFR2 protein; mTNFR2; not shown: Fc part of the bought fusion protein; not described
T3 sequence (looked up): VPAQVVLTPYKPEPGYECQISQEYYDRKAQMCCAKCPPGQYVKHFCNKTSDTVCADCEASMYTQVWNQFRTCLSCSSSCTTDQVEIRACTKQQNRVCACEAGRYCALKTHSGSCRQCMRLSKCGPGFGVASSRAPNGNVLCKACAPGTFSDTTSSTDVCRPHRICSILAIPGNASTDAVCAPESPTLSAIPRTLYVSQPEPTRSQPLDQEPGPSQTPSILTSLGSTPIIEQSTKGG
Kind of assay: ELISA, coated TNFR2-Fc. How it is done:
(§2) 96-well plates (Lumitrac 600 LIA plate, Greiner) were coated overnight at 4° C. with recombinant human or mouse TNFR2-Fc protein (Sino Biological) at 1 pmol/well. After washing, titrated doses of anti-TNFR2 mAbs from 20 μg/ml to 0.1 ng/ml (133 nM to 1 pM) were allowed to bind for 1 hour. Plates were then washed again, and bound antibodies were detected with an anti-human-F(ab)-HRP secondary antibody (Jackson ImmunoResearch) diluted in 50 ng/ml. Super Signal ELISA Pico (Thermo Scientific) was used as substrate and the plates were analyzed using Tecan Ultra Microplate reader.

In assay [4] the target is T4, Cynomolgus TNFR2 (on cynomolgus CD4+ T cells) (cynomolgus monkey (Macaca fascicularis), UniProt A0A2K5VET2 132-571).
T4 construct: whole, on cells; also called cmTNFR2; cynoTNFR2
T4 sequence: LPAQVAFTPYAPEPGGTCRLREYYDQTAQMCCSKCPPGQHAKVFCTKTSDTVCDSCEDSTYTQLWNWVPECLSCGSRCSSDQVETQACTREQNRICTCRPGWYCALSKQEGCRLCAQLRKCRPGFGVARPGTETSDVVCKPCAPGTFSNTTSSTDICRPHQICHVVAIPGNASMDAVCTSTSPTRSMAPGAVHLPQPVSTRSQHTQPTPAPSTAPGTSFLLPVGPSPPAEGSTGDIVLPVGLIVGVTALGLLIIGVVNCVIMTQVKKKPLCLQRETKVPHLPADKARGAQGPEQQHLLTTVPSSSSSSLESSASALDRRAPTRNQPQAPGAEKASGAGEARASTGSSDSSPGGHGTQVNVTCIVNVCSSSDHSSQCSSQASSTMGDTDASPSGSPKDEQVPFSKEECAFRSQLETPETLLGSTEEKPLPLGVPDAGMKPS
The experiment in a line: FACS, stimulated cynomolgus CD4+ T cells, % over isotype. How it is done:
To validate the cross-reactivity of TNFR2 antibodies to Cynomolgus, Cynomolgus CD4⁺ T cells were stimulated 2 days with 50 ng/ml PMA (Sigma) and 100 ng/ml lonomycin (Sigma). Cells were incubated with TNFR2 specific n-CoDeR® antibodies at 3 different concentrations (0.1, 1 and 10 μg/ml) and then incubated with an APC conjugated secondary a-human IgG reagent (Jackson).

In assay [5] the target is T5, recombinant human TNFR2-Fc protein (Sino Biological) (human, UniProt P20333 23-257, limits assumed).
T5 construct: bought; also called human TNFR2 protein; not shown: Fc part of the bought fusion protein; not described
T5 sequence (looked up): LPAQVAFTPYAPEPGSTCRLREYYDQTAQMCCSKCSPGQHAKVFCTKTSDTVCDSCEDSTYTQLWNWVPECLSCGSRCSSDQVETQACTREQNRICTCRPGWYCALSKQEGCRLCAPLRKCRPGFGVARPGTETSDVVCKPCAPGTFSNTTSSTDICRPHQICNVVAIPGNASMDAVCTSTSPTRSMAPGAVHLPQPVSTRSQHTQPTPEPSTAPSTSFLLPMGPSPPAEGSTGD
The experiment in a line: ELISA, coated TNFR2-Fc. How it is done:
as §2
A general note: An ELISA detects its analyte on a solid surface through an enzyme-linked reagent.

For assay [6], the target named is T6, wild type, full length human TNFR2 (on cells) (human, UniProt P20333 23-461).
T6 construct: whole, on cells; also called hTNFR2; TNFRII
T6 sequence (looked up): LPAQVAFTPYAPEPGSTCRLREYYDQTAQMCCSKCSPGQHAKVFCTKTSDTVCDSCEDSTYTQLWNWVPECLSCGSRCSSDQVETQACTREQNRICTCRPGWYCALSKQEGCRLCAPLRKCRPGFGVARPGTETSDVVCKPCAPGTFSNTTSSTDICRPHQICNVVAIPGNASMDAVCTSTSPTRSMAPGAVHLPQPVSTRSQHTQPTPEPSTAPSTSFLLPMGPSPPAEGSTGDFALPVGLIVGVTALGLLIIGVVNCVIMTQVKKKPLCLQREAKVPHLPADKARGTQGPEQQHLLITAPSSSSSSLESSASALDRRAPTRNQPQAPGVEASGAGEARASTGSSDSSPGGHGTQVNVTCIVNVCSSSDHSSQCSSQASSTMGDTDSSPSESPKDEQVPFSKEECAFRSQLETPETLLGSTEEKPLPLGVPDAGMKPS
The experiment in a line: FACS, activated CD4+ T cells. As to the method:
The ability and affinity of TNFR2 n-CoDeR® antibodies to bind TNFR2 expressed on cells were obtained using in vitro activated CD4⁺ T cells. Human CD4⁺ T cells were stimulated with 50 ng/ml rhIL-2 (R&D systems) and Dynabeads® T-Activator CD3/CD28 for T-Cell Expansion and Activation (Gibco) 2-3 days at 37 degrees. […] Cells were then incubated with an APC conjugated a-human IgG secondary ab (Jackson) followed by analysis by flow cytometry (FACSVerse, BD).

Assay [7] has as its target T7, hTNFRII (Sinobioologicals Cat nr10414-H08H) (human, UniProt P20333 23-257).
T7 construct: bought; also called immobilized TNFR2
T7 sequence (looked up): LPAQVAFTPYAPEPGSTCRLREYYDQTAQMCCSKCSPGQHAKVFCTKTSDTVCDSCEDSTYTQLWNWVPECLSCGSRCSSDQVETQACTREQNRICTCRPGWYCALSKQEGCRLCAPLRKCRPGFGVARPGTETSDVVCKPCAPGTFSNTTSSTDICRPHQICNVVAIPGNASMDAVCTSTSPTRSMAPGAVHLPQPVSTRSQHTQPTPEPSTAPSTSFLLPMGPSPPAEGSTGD
Kind of assay: blocking ELISA, coated hTNFRII, competitor hTNF-α-bio 5 nM. How it is done:
as §1

B1: 003-F10 (antibody, V domains shown)
VH: EVQLLESGGGLVQPGGSLRLSCAASGFTFSDAWMTWVRQAPGKGLEWVSDLSDSGGSTYYADSVKGRFTISRDNSKNTLYLQMNSLRAEDTAVYYCGRLAAGGPVDYWGQGTLVTVSS
VL: QSVLTQPPSASGTPGQRVTISCTGSSSNIGAGYDVHWYQQLPGTAPKLLIYSNNQRPSGVPDRFSGSKSGTSASLAISGLRSEDEADYYCSVWDDSLNSWVFGGGTKLTVLG
notes: also called 3-F10 (mouse)
With B1, the EC50 (as a rule, the concentration needed to bring the measured effect to its halfway point) in assay [1] was 0.072 nM; in assay [2], 1.9 nM; in assay [3] it was 0.97 nM.

B2: 001-G04 (antibody, V domains shown)
VH: EVQLLESGGGLVQPGGSLRLSCAASGFTFNTYSMNWVRQAPGKGLEWVSVLYSDDDTHYADSVKGRFTISRDNSKNTLYLQMNSLRAEDTAVYYCARDCGGDCHSGDDAFDIWGQGTLVTVSS
VL: not shown
notes: IgG
In the case of B2, the binding result in assay [4] is reported as “no binding (tested: 10 µg/ml)”. Also, the concentration for a half-maximal effect (EC50) in assay [5] came out at 1.7 nM; in assay [6] it was 18 nM; in assay [7], 3.2 nM.
